Measurements from patent US20060057696A1, “Sugar chain synthases” (priority 2002, published 2006).
One block for each molecule: values may come before it.

What was measured:
[1] = target: T1, PA-mST6Gal II (mouse ST6Gal II) (Mus musculus, UniProt Q76K27, R48S); assay: Sialyltransferase activity of PA-mST6Gal II toward acceptor substrates; format: biochemical; details: PA-mST6Gal II; incorporation with Galβ1,4GlcNAc taken as 100; 0.5 mg/ml glycolipids, 1 mg/ml glycoproteins and oligosaccharides
T1 construct: amino acids 31-524 in the case of mouse ST6Gal II; signal peptide of mouse immunoglobulin IgM (N); made in house; host or cells: COS-7 cells, transient expression of pcDSA-mST6Gal II; protein recovered from medium on IgG-Sepharose
T1 sequence (Q76K27 31-524 R48S): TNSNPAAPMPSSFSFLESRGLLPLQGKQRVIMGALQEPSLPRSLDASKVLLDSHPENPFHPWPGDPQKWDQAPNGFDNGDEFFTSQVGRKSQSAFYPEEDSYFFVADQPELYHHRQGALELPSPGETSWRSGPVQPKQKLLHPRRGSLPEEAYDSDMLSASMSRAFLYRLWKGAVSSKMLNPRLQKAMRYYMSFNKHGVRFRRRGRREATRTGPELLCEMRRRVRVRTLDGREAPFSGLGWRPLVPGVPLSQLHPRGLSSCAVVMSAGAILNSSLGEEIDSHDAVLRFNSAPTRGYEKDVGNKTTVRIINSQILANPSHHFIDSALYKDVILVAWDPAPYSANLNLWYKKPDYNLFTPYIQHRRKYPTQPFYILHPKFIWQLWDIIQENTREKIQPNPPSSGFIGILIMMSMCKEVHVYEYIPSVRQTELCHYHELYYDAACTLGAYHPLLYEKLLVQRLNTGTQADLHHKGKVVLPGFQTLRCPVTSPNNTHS
Experimental: (§1) Using each expression vector and lipofectamine (Invitrogen), transient expression was carried out in COS-7 cells (Kojima, N. et al. (1995) FEBS Lett. 360, 1-4). The proteins of the present invention secreted from the cells into which each expression vector had been introduced were named as PA-hST6Gal II (human) and PA-mST6Gal II (mouse). PA-hST6Gal II and PA-mST6Gal II were adsorbed to IgG-Sepharose (Amersham Pharmacia Biotech), and were then recovered from medium. Sialyltransferase activity was measured as follows according to the method of Lee et al. (Lee, Y.-C. et al. (1999) J Biol. Chem. 274, 11958-11967). A reaction mixture (10 μl) containing 50 mM MES buffer (pH 6.0), 1 mM MgCl2, 1 mM CaCl2, 0.5% Triton CF-54, 100 μM CMP-[^14C]-NeuAc, a substrate sugar chain (which was added at 0.5 mg/ml in the case of glycolipids, and at 1 mg/ml in the case of glycoproteins or oligosaccharides), and a PA-hST6Gal II or PA-mST6Gal II suspension, was incubated at 37° C. for 3 to 20 hours. Thereafter, in the case of glycolipids, the reaction product was purified with a C-18 column (Sep-Pak Vac 100 mg; Waters) and the purified product was used as a sample. In the case of oligosaccharides or glycoproteins, the reaction product was directly used as a sample. Thus, the obtained sample was subjected to analysis. In the case of oligosaccharides or glycolipids, the sample was spotted on a silica gel 60 HPTLC plate (Merck), and it was then developed with a developing solvent consisting of 1-propanol:ammonia water:water=6:1:2.5 (for oligosaccharides), or a developing solvent consisting of chloroform:methanol: 0.02% CaCl2=55:45:10 (for glycolipids). In the case of glycoproteins, analysis was carried out by SDS-polyacrylamide gel electrophoresis. The obtained radioactivities were visualized with a BAS2000 radio image analyzer (Fuji Film) and then quantified.

[2] = target: T2, PA-hST6Gal II (human ST6Gal II) (Homo sapiens, UniProt Q96JF0); assay: Sialyltransferase activity of PA-hST6Gal II toward acceptor substrates; format: biochemical; details: PA-hST6Gal II; incorporation with Galβ1,4GlcNAc taken as 100; 0.5 mg/ml glycolipids, 1 mg/ml glycoproteins and oligosaccharides
T2 construct: amino acids 33-529 in the case of human ST6Gal II; signal peptide of mouse immunoglobulin IgM (N); made in house; host or cells: COS-7 cells, transient expression of pcDSA-hST6Gal II; protein recovered from medium on IgG-Sepharose
T2 sequence (Q96JF0 33-529): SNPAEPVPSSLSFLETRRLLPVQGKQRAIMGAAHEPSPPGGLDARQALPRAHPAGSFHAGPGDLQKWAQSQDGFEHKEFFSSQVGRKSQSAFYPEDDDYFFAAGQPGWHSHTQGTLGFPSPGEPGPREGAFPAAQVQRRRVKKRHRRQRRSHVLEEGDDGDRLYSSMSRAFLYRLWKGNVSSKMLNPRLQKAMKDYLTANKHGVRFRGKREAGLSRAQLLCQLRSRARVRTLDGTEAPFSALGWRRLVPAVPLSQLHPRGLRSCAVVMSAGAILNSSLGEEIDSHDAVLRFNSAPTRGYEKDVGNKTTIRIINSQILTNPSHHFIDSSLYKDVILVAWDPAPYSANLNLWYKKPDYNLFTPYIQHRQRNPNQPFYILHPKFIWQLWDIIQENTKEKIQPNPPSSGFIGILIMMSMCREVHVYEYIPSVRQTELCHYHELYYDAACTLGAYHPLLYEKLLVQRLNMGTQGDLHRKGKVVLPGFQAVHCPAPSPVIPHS
Experimental: as §1

Molecule: Asialo- α1-Acid glycoprotein: desialylated α1-acid glycoprotein prepared at 80° C. for 1 hour in 0.02 N HCl
Relative rate (%) Mouse ST6Gal II [1]: 12.3%
Relative rate (%) Human ST6Gal II [2]: 1.2%

Molecule: Asialofetuin: asialo glycoprotein acceptor substrate purchased from Sigma
Relative rate (%) Mouse ST6Gal II [1]: 21.0%
Relative rate (%) Human ST6Gal II [2]: 3.9%

Molecule: Fetuin: glycoprotein acceptor substrate containing both O-glycans and N-glycans, purchased from Sigma
Relative rate (%) Mouse ST6Gal II [1]: 0%
Relative rate (%) Human ST6Gal II [2]: 0%

Molecule: Galβ1,3GalNAcβ1,4(NeuAcα2,3)Galβ1,4Glcβ1-Cer [GM1a]
Relative rate (%) Mouse ST6Gal II [1]: 0%
Relative rate (%) Human ST6Gal II [2]: 0%

B2: Asialoovomucoid: desialylated ovomucoid prepared at 80° C. for 1 hour in 0.02 N HCl (protein, UniProt P01005 25-210, looked up)
Ovomucoid: AEVDCSRFPNATDKEGKDVLVCNKDLRPICGTDGVTYTNDCLLCAYSIEFGTNISKEHDGECKETVPMNCSSYANTTSEDGKVMVLCNRAFNPVCGTDGVTYDNECLLCAHKVEQGASVDKRHDGGCRKELAAVSVDCSEYPKPDCTAEDRPLCGSDNKTYGNKCNFCNAVVESNGTLTLSHFGKC
modifications: desialylated
notes: desialylated ovomucoid prepared at 80° C. for 1 hour in 0.02 N HCl
Relative rate (%) Mouse ST6Gal II [1]: 0%
Relative rate (%) Human ST6Gal II [2]: 0%

Results, then the molecule that gave them:

Relative rate (%) Mouse ST6Gal II [1]: 0%
Relative rate (%) Human ST6Gal II [2]: 0%
Molecule: Galβ1,4Glcβ1-Cer [Lactosylceramide]

Relative rate (%) Mouse ST6Gal II [1]: 0%
Relative rate (%) Human ST6Gal II [2]: 0%
Molecule: NeuAcα2,3Galβ1,4Glcβ1-Cer [GM3]

Relative rate (%) Mouse ST6Gal II [1]: 0.75%
Relative rate (%) Human ST6Gal II [2]: 1.2%
Molecule: α1-Acid glycoprotein: glycoprotein acceptor substrate purchased from Sigma

Relative rate (%) Mouse ST6Gal II [1]: 0%
Relative rate (%) Human ST6Gal II [2]: 0%
B1: Ovomucoid: glycoprotein acceptor substrate which contains only N-glycans (protein, UniProt P01005 25-210, looked up)
Ovomucoid: B2 Ovomucoid
